Consider one molecule from US20120107364A1 (ACTGEN, published 2012).

This assay has as its target T1, PODXL2, positions 1 to 400 (human, UniProt O00592 23-432).
T1 construct: Encoded as positions 1-400 in pMX-SST and expressed on Ba/F3 cells; The vector-encoded part is not described; also called R400
T1 sequence: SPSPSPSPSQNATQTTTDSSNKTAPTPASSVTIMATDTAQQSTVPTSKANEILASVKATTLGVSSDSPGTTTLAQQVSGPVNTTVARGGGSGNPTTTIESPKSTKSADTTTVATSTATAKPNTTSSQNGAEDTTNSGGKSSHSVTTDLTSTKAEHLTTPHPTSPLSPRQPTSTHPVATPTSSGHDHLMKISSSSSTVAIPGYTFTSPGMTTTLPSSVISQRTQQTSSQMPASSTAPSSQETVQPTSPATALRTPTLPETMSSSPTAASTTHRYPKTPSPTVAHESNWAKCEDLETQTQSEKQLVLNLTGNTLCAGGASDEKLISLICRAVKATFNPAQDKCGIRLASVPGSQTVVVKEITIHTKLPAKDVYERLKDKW
Briefly: flow cytometry on Ba/F3 cells expressing the truncated PODXL2. A general note: In flow cytometry, cells or beads pass a laser one at a time.

B1: ACT36-27-5D1 antibody (antibody, V domains shown)
VH: EVQLQQSGPELVKPGASVKMSCKASGYTFTSYVMHWVKQKPGQGLEWIGYIHPYNDGIKYNEKFKGKATLTSDKSSSTAYMDLSSLTSEDSAVYYCARSWDWYFDVWAAGTTVTVSS
VL: QIVLTQSPAIMSASPGEKVSMTCSASSSVSYMHWYQQKSGTSPKRWIYDTSKLASGVPARFSGSGSGTSYSLTISSMEAEDAATYYCLQWSSNPPTFGGGTKLE
notes: also called anti-PODXL2 antibody ACT36-27-5D1; anti-ACT36-27-5D1 monoclonal antibody
B1: the binding result is listed as “no binding”.
